Test results from the DeepSol protein solubility set.

Test: soluble on expression in E. coli; label from the status in PepcDB or PDB records

| Sequence | soluble on expression in E. coli |
| --- | --- |
| MKGVVEGQCGQQNALVGLANTFGTSNQRVAPSNAAASLLPSSSMGEQMANEFLRQQARTMAPTSFSMKSMQNNLPQASASSSLAANWTKEFQPRQNQLASQWSQQYTSSAPSMESAWRQVQAPSMTSTSSHQPITDAGMWSSEYLDTVDTSLTKSSGTQNWADDFMEQQDNYGMENTWKDAQAFEQRWEEIKRDMEKDESLQSPENYVYQEANPFTTMSDPLMEGDNLMRNGDIGNAMLAYEAAVQKDPQDARAWCKLGLAHAENEKDQLAMQAFQKCLQIDAGNKEALLGLSVSQANEGMENEALHQLDKWMSSYLGSNSTQVTTTPPLYSSFLDSDTFNRVEARFLDAARQQGATPDPDLQNALGVLYNLNRNFARAVDSLKLAISKNPTDARLWNRLGATLANGDHTAEAISAYREALKLYPTYVRARYNLGISCMQLSSYDEALKHFLSALELQKGGNDASGIWTTMRSAAIRTSNVPDNLLRAVERRDLAAVKASLV | not soluble |
| MKHFSVKRLLGLSSVLLVTLGASMHAQSYLPKHESVTLKNGLQVVSVPLENKTGVIEVDVLYKVGSRNETMGKSGIAHMLEHLNFKSTKNLKAGEFDKIVKRFGGVSNASTSFDITRYFIKTSQANLDKSLELFAETMGSLNLKEDEFLPERQVVAEERRWRTDNSPIGMLYFRFFNTAYVYHPYHWTPIGFMDDIQNWTLKDIKKFHSLYYQPKNAIVLVVGDVNSQKVFELSKKHFESLKNLDEKAIPTPYMKEPKQDGARTAVVHKDGVHLEWVALGYKVPAFKHKDQVALDALSRLLGEGKSSWLQSELVDKKRLASQAFSHNMQLQDESVFLFIAGGNPNVKAEALQKEIVALLEKLKKGEITQAELDKLKINQKADFISNLESSSDVAGLFADYLVQNDIQGLTDYQRQFLDLKVSDLVRVANEYFKDTQSTTVFLKP | not soluble |
| MKHLFTRIFLFHLLLIGTVQVTAQNKKSGNPILPGFHADPEVLYSHQTKRYYIYPTSDGFPGWGGSYFKVFSSKNLKTWKEETVILEMGKNVSWANGNAWAPCIEEKKIDGKYKYFFYYSANPTTNKGKQIGVAVADSPTGPFTDLGKPIITSSPTGRGQQIDVDVFTDPVSGKSYLYWGNGYMAGAELNDDMLSIKEETTVVLTPKGGTLQTYAYREAPYVIYRKGIYYFFWSVDDTGSPNYHVVYGTAQSPLGPIEVAKEPIVLIQNPKEEIYGPAHNSILQVPGKDKWYIVYHRINKNHLNDGPGWHREVCIDRMEFNPDGTIKQVIPTP | not soluble |
| MKHLIVVPPRMNLYIKKNLAINDIFREFVANEDLWPYSIDESILDLTHTWRLFGKTPRAVAQLIQHTIRHRLGLYTTVGIGDNPLQAKIALDVYAKHDPNLIGQISYLEHHHHHH | not soluble |
| MKHLTASEVRSTFINFFREKKEHTYVHSSSVIPHDDPTLLFANAGMNQFKPLFLGIADPNSDLAKLKRAVNTQKCIRAGGKHNDLDDVGKDVYHHTYFEMLGNWSFGDYFKKEIITWAWELLTTVYGIPAERLYVSVFGGDEANGVPADSEARDIWRSVGVPDERILNFGMKDNFWEMGDVGPCGPCSEIHYDRIGNRDASHLVNADDPMVVEIWNLVFIQFNREEGGVLKPLPAKHIDCGLGLERLIAVMQDKTSNYDTDIFQPIFEAIHKGSGVRAYTGFIGDEDKDGVDMAYRVVADHVRTLTIALSDGGRPDNSGRGYVLRRILRRGVRYASEKLNAQPGFFASLVPVVISILGETFPELSRDPVTVMDIINDEEKQFLKTLSRGRVLFQRAVQSLPEGTMTFPGDVSWRLYDTYGFPADLTQLMAEEKGLSVDNTAFEEARRKAIETSSAGTGKFRDTLDLDVHALAELQQKGVPTTDDSPKYAYTFTGEGSDAVYKFEPCVGKILAIRRDGKFVDQLAAGEEGAILLDRTNFYAEQGGQIYDVGVLTKVNDESNEFNVSNCQVRGGYIVLVGSAEGSFSVGDQVNERFDEDRKQLIMKNHTGTHVLNYALRKVLADSDQKGSLVAPDRMRFDFTNKAGMTVQQVKKAEEYAQQLIDTKGQVYAKNSPLGEAKKVKGLRAMFDETYPDPVRVVAVGTPVEQLLQNPDAEEGQNTTVEFCGGTHLQNVSHIGRIVIASEEAIAKGIRRIVALTGPEAERAIARADRLTARLEEESKHADKKDELLANKDKFKALQKKIQEIVDEANGAQLPYWRKDSIREKAKAIQKTLDGYTKAQQAAVAEKVLGEAKELAAVAEQPTVLVHVFAANANSKAIDNALKLLKDTKAVMAFSVNEDSGKVLCLAKVDKSLVSNGLKANEWVNEVCTVLGGKGGGKDANAQLTGENVDKLDAAVELAQKFALAAIN | soluble |
| MKHVPIRMCVACRRRRPKGELLRILVTEEGFVIDPSGKRPGRGAYVCPDSPECRSEKRLRRFAGAKARALAEALAAYLGGEDGQGKDLPAG | soluble |
